US20130202598

Assays:
[1] = test system: PE-DTA-cleavage site-defensin (P6-P4' NS5A/B site of genotype 1b/1a)
[2] = test system: PE-DTA-mutated cleavage site-defensin

In the case of recombinant MBP-scNS3 fusion, the “in vitro cleavage by NS3 (immunoblot with anti-PE antibodies)” value [1] is reported as “complete cleavage of the chimeric toxin” and the “in vitro cleavage by NS3 (immunoblot with anti-PE antibodies)” value [2] is reported as “resistant to cleavage by NS3”.
